Laboratory results as given in patent US20080306007.

T1: endophilin I (native, from rat brain lysate or synaptosomes), O35179
T1 chain: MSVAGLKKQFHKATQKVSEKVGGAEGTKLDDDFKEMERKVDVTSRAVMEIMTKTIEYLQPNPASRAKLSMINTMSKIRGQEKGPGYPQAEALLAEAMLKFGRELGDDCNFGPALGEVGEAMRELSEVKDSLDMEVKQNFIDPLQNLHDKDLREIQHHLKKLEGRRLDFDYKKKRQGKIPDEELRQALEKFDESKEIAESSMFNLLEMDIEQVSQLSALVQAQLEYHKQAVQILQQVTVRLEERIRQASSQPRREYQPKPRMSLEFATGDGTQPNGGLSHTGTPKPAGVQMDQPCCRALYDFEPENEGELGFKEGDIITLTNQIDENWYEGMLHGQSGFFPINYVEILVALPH

B1: DynI-PB2-GFP (protein)
chain: MGNRGMEDLIPLVNRLQDAFSAIGQNADLDLPQIAVVGGQSAGKSSVLENFVGRDFLPRGSGIVTRRPLVLQLVNSTTEYAEFLHCKGKKFTDFEEVRLEIEAETDRVTGTNKGISPVPINLRVYSPHVLNLTLVDLPGMTKVPVGDQPPDIEFQIRDMLMQFVTKENCLILAVSPANSDLANSDALKIAKEVDPQGQRTIGVITKLDLMDEGTDARDVLENKLLPLRRGYIGVVNRSQKDIDGKKDITAALAAERKFFLSHPSYRHLADRMGTPYLQKVLNQQLTNHIRDTLPGLRNKLQSQLLSIEKEVDEYKNFRPDDPARKTKALLQMVQQFAVDFEKRIEGSGDQIDTYELSGGARINRIFHERFPFELVKMEFDEKELRREISYAIKNIHGIRTGLFTPDLAFEATVKKQVQKLKEPSIKCVDMVVSELTSTIRKCSEKLQQYPRLREEMERIVTTHIREREGRTKEQVMLLIDIELAYMNTNHEDFIGFANAQQRSNQMNKKKTSGNQDEILVIRKGWLTINNIGIMKGGSKEYWFVLTAENLSWYKDDEEKEKKYMLSVDNLKLRDVEKGFMSSKHIFALFNTEQRNVYKDYRQLELACETQEEVDSWKASFLRAGVYPERVGDKEKASETEENGSDSFMHSMDPQLERQVETIRNLVDSYMAIVNKTVRDLMPKTIMHLMINNTKEFIFSELLANLYSCGDQNTLMEESAEQAQRRDEMLRMYHALKEALSIIGDINTTTVSTPMPPPVDDSWLQVQSVPAGEESPTSSPTPQRRAPAVPPARPGSRGPAPGPPPAGSALGGAPPVPSRPGASPDPFGPPPQVPSRPNRAPPGVPSRSGQASPSRPESPRPPFDL
B2: DynI^dmE-GFP (protein)
chain: MGNRGMEDLIPLVNRLQDAFSAIGQNADLDLPQIAVVGGQSAGKSSVLENFVGRDFLPRGSGIVTRRPLVLQLVNSTTEYAEFLHCKGKKFTDFEEVRLEIEAETDRVTGTNKGISPVPINLRVYSPHVLNLTLVDLPGMTKVPVGDQPPDIEFQIRDMLMQFVTKENCLILAVSPANSDLANSDALKIAKEVDPQGQRTIGVITKLDLMDEGTDARDVLENKLLPLRRGYIGVVNRSQKDIDGKKDITAALAAERKFFLSHPSYRHLADRMGTPYLQKVLNQQLTNHIRDTLPGLRNKLQSQLLSIEKEVDEYKNFRPDDPARKTKALLQMVQQFAVDFEKRIEGSGDQIDTYELSGGARINRIFHERFPFELVKMEFDEKELRREISYAIKNIHGIRTGLFTPDLAFEATVKKQVQKLKEPSIKCVDMVVSELTSTIRKCSEKLQQYPRLREEMERIVTTHIREREGRTKEQVMLLIDIELAYMNTNHEDFIGFANAQQRSNQMNKKKTSGNQDEILVIRKGWLTINNIGIMKGGSKEYWFVLTAENLSWYKDDEEKEKKYMLSVDNLKLRDVEKGFMSSKHIFALFNTEQRNVYKDYRQLELACETQEEVDSWKASFLRAGVYPERVGDKEKASETEENGSDSFMHSMDPQLERQVETIRNLVDSYMAIVNKTVRDLMPKTIMHLMINNTKEFIFSELLANLYSCGDQNTLMEESAEQAQRRDEMLRMYHALKEALSIIGDINTTTVSTPMPPPVDDSWLQVQSVPAGRREPTSEPTPQRRAPAVPPARPGSRGPAPGPPPAGSALGGAPPVPSRPGASPDPFGPPPQVPSRPNRAPPGVPSRSGQASPSRPESPRPPFDL
B3: DynI-3B-GFP (protein)
chain: MGNRGMEDLIPLVNRLQDAFSAIGQNADLDLPQIAVVGGQSAGKSSVLENFVGRDFLPRGSGIVTRRPLVLQLVNSTTEYAEFLHCKGKKFTDFEEVRLEIEAETDRVTGTNKGISPVPINLRVYSPHVLNLTLVDLPGMTKVPVGDQPPDIEFQIRDMLMQFVTKENCLILAVSPANSDLANSDALKIAKEVDPQGQRTIGVITKLDLMDEGTDARDVLENKLLPLRRGYIGVVNRSQKDIDGKKDITAALAAERKFFLSHPSYRHLADRMGTPYLQKVLNQQLTNHIRDTLPGLRNKLQSQLLSIEKEVDEYKNFRPDDPARKTKALLQMVQQFAVDFEKRIEGSGDQIDTYELSGGARINRIFHERFPFELVKMEFDEKELRREISYAIKNIHGIRTGLFTPDLAFEATVKKQVQKLKEPSIKCVDMVVSELTSTIRKCSEKLQQYPRLREEMERIVTTHIREREGRTKEQVMLLIDIELAYMNTNHEDFIGFANAQQRSNQMNKKKTSGNQDEILVIRKGWLTINNIGIMKGGSKEYWFVLTAENLSWYKDDEEKEKKYMLSVDNLKLRDVEKGFMSSKHIFALFNTEQRNVYKDYRQLELACETQEEVDSWKASFLRAGVYPERVGDKEKASETEENGSDSFMHSMDPQLERQVETIRNLVDSYMAIVNKTVRDLMPKTIMHLMINNTKEFIFSELLANLYSCGDQNTLMEESAEQAQRRDEMLRMYHALKEALSIIGDINTTTVSTPMPPPVDDSWLQVQSVPAGRRSPTSSPTPQRRAPAVPPARAGSRGPAPGPPPAGSALGGAPPVPSRPGASPDPFGPPPQVPSRPNRAPPGVPSRSGQASPSRPESPRPPFDL
B4: DynI^dmA-GFP (protein)
chain: MGNRGMEDLIPLVNRLQDAFSAIGQNADLDLPQIAVVGGQSAGKSSVLENFVGRDFLPRGSGIVTRRPLVLQLVNSTTEYAEFLHCKGKKFTDFEEVRLEIEAETDRVTGTNKGISPVPINLRVYSPHVLNLTLVDLPGMTKVPVGDQPPDIEFQIRDMLMQFVTKENCLILAVSPANSDLANSDALKIAKEVDPQGQRTIGVITKLDLMDEGTDARDVLENKLLPLRRGYIGVVNRSQKDIDGKKDITAALAAERKFFLSHPSYRHLADRMGTPYLQKVLNQQLTNHIRDTLPGLRNKLQSQLLSIEKEVDEYKNFRPDDPARKTKALLQMVQQFAVDFEKRIEGSGDQIDTYELSGGARINRIFHERFPFELVKMEFDEKELRREISYAIKNIHGIRTGLFTPDLAFEATVKKQVQKLKEPSIKCVDMVVSELTSTIRKCSEKLQQYPRLREEMERIVTTHIREREGRTKEQVMLLIDIELAYMNTNHEDFIGFANAQQRSNQMNKKKTSGNQDEILVIRKGWLTINNIGIMKGGSKEYWFVLTAENLSWYKDDEEKEKKYMLSVDNLKLRDVEKGFMSSKHIFALFNTEQRNVYKDYRQLELACETQEEVDSWKASFLRAGVYPERVGDKEKASETEENGSDSFMHSMDPQLERQVETIRNLVDSYMAIVNKTVRDLMPKTIMHLMINNTKEFIFSELLANLYSCGDQNTLMEESAEQAQRRDEMLRMYHALKEALSIIGDINTTTVSTPMPPPVDDSWLQVQSVPAGRRAPTSAPTPQRRAPAVPPARPGSRGPAPGPPPAGSALGGAPPVPSRPGASPDPFGPPPQVPSRPNRAPPGVPSRSGQASPSRPESPRPPFDL

Assays:
[1] = target: syndapin I (native, from rat brain lysate or synaptosomes)
Chain of syndapin I (native, from rat brain lysate or synaptosomes) (chain, as listed by the source): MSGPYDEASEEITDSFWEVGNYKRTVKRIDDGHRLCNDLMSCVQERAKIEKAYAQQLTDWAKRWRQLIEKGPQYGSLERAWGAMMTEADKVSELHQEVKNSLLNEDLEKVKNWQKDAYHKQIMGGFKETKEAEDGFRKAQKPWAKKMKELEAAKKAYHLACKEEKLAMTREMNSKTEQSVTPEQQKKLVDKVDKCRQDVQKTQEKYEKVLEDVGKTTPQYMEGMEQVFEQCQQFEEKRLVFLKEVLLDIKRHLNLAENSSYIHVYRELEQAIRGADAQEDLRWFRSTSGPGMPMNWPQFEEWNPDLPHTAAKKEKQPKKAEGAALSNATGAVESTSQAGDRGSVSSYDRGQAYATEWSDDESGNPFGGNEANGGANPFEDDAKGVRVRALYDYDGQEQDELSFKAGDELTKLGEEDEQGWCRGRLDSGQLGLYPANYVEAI

[2] = target: T1, endophilin I (native, from rat brain …)

Protein	total SV recycling pool (FM4-64) in transfected CGNs [1]	also measured
B1		total synaptic recycling pool (FM4-64) in transfected CGNs [1]: 59.5±4.3% of control for DynI-PB2-GFP
B2	64.4±6.2% of control	
B3		total synaptic recycling pool (FM4-64) in transfected CGNs [2]: 56.8±4.4% for DynI-3B-GFP
B4	28±3.5% of control	
